According to patent publication US20240288453A1 (NATIONAL UNIVERSITY CORPORATION TOKAI NATIONAL HIGHER …, published 2024):

Molecular target: T1, mouse TfR (mouse, UniProt Q62351 89-763, limits assumed)
T1 construct: The assay and the form of the protein are not described
Assay: not described

T1 sequence (Q62351 89-763 limits assumed): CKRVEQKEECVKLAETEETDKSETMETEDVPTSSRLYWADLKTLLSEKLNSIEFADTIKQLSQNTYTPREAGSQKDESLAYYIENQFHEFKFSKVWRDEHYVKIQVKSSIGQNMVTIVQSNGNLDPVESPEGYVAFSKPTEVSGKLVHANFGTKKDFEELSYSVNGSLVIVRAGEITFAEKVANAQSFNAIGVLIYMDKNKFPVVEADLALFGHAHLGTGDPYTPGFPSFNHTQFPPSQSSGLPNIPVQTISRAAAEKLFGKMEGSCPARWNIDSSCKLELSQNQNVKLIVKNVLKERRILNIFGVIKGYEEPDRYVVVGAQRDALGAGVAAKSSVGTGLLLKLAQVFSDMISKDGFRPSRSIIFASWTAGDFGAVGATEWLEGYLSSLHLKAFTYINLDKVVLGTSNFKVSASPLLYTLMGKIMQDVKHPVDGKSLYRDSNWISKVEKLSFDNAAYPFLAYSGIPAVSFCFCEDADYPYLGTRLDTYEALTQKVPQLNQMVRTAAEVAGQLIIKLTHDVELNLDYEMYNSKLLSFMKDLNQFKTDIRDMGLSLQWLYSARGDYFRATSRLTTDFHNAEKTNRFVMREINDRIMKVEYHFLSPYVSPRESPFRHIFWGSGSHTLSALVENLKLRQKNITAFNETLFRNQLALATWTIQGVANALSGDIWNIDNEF

B1: TfR436 antibody (antibody, V domains shown)
VH: DVQLVQSGGGVVQPGRSLRLSCAASGFPFKSYGMHWVRQAPGKGLEWVAVISYDGSNKYYADSVKGRFTISRDNSKNTLYLQMNSLRGEDTAVYYCARDSNFWSGYYSPVDVWGQGTTVTVSS
VL: NFMLTQPHSVSESPGKTVTISCTRSSGSIASNSVQWYQQRPGSAPITVIYEDTQRPSGVPDRFSGSIDSSSNSASLTISGLQTEDEADYYCQSYDSAYHWVFGGGTKLAVL
notes: The antibody is the one of paragraphs 0090 and 0091 of WO2014/073641 and was detected with an anti-human IgG Fc gamma secondary antibody; also called parent antibody
binding result: no binding
